Test results published in the nanobody polyreactivity screen of Harvey et al. (2022).

Experiment: yeast display, Sf9 membrane polyspecificity reagent, FACS + sequencing; frameworks hold sequencing errors
In short: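 Galactose-induced (36–48 hours) yeast carrying a synthetic nanobody display library were exposed to 10% biotinylated, detergent-solubilized Sf9 membrane reagent at 4 °C for 1 hour. FACS followed streptavidin microbead enrichment, using low and high (top ~1%) gates for expression (anti-HA) and reagent binding (streptavidin). Colony PCR, MiSeq 2 × 250 sequencing and CDR-length filtering followed. Labels for polyreactivity reflect the gate of origin.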

Row | Sequence | polyreactivity (PSR sort gate)
1 | QVQLVESGGGLVQAGGSLRLSCAASGFTFPVYAMGWYRPAPGIEREFVAASTKSGGGTYYADSVKGRCTLSRDNAKKTVYGQMNSLKPEETAVYYCAKASRRFLTLGSDYWGQGTQVTVSS | high polyreactivity
2 | QVQLVESGGGLVQAGGSLRLSCAASGFTFPYNAMGWYRPAPGTARELVAGISYGGGRTYYADSVKGRFTFSRDNAKNTVYLQMNSLKPEDTAVYYCARRPGAWKYVYTGDYWGQGTQVTVSS | high polyreactivity
3 | QVQLVESGGGLVQAGGSLRLSCAASGFTFPYNAMGWYRQAPGKERELVAAISRGGGRTYYADSVKGRFTISRDNAKNTVYLQMNSLKPEDTAVYYCAKAPGQDTPYPYGYWGQGTQVTVSS | high polyreactivity
4 | QVQLVESGGGLVQAGGSLRLSCAASGFTFPYNAMGWYRQPPGKERELVAAISRGAGRTYYADSVKGRFTISRDNAKNTVYLQMNSLKQEDTAVYYCAKAPGQDTPYPYGYWGQGTQVTVSS | high polyreactivity
5 | QVQLVESGGGLVQAGGSLRLSCAASGFTFPYYAMGWYRQAPGKERELVARISSGGSTNYADSVKGRFTISRDNAMNTVYLEMNSLKPEDTAVYYCNKGWYYRPRFYSSSDYWGQGTQVTVSS | high polyreactivity
6 | QVQLVESGGGLVQAGGSLRLSCAASGFTFPYYTMGWYRQAPGKERELVAAINRGGGSTYYADSVKGRFTISRDNAKNTVYLHMNSLKPEDTAVYYCACLRCLFPGRFDYWGQSTQVTVSS | high polyreactivity
7 | QVQLVESGGGLVQAGGSLRLSCAASGFTFPYYTMGWYRQAPGKERELVAAISKSGGSTYYADSVKGRFTISRDNAKNTVYLEMHSLKPEDTAVYYCNARRGSPAPYDYWGQGTQVTVSS | high polyreactivity
8 | QVQLVESGGGLVQAGGSLRLSCAASGFTFQAYAMGWYRQAPGKERELVAAISKSGGSTYYADSVKGRFTISRDNAKNTVYLQMNSLKPEDTAVYYCAARSWERYRAFIYWGQGTQVTVSS | high polyreactivity
9 | QVQLVESGGGLVQAGGSLRLSCAASGFTFQFYAMGWSRPAPGKERELVAAITWSGGSTYYADSVKGRFTISRDNAKNTVYLQMNSLKPEDTAVYYCAKDRRSYLSYIYDYWGQGTQVNVSS | high polyreactivity
10 | QVQLVESGGGLVQAGGSLRLSCAASGFTFQNNVMGWYRQAPGKERELVAAINSSGRTYYADSVKGRFTISRDNAKNTVYLQMNSLKPEDTAVFYCAASRRYRGVNRPGDYWGQGTQVTVSS | high polyreactivity
11 | QVQLVESGGGLVQAGGSLRLSCAASGFTFQNYAMGWYRQAPGKERELVAAIDSRGGRTYYADSVKGRFTISRDNAKNTVYLQMNSLNPEDTAVYYCAGAENKRFGSVGYYYWGQGTQVTVSS | low polyreactivity
12 | QVQLVESGGGLVQAGGSLRLSCAASGFTFQRYTMGWYRQAPGKERELVAAITRSGGRTYYADSVKGRFTISRDNAKNTVYLQMNSLKPEDTAVYYCAVDYRTRGDYWGQGTQVTVSS | high polyreactivity
13 | QVQLVESGGGLVQAGGSLRLSCAASGFTFQWYGMGWYRQAPGKERELVAAITWSGGRTNYADSVKGRFTISRDNAKNTVYLQMNSLKPEDTAVYYCNKVFPRRGGDDNYWGQGTQVTVSS | high polyreactivity
14 | QVQLVESGGGLVQAGGSLRLSCAASGFTFQYSAMGWSRQAPGKERDVVAAIRSNGGSTYYADSVKGRFTISRDNAKNTVYLQMNSLKPEDTAVYYSAARAYKTYDWGQGTQVTVSS | high polyreactivity
15 | QVQLVESGGGLVQAGGSLRLSCAASGFTFQYYAKGWYRQAPGKERELVAAISSSGGSTFYADSVKGRFTSSRDNAKNTVYLQMNSLKPEDTAVYYCATYTSPGYYYWGQGTQVTVSS | high polyreactivity
16 | QVQLVESGGGLVQAGGSLRLSCAASGFTFQYYAMGWYRQAPGKERELVAAISGTSGSTRYADSVKGRFTISRDNSKNTVYLQMNSLKPEDSAVYYCAAGSRGKVPVGLRYGYYYWGQGTQVTVSS | high polyreactivity
17 | QVQLVESGGGLVQAGGSLRLSCAASGFTFQYYAMGWYRQAPGKERELVAAISWSGDSTYYADSVKGRFTISRDNAKNTVYLQMNSLKPEDTAVYYCAVYYTRGYDYWGQGTQVTVSS | high polyreactivity
18 | QVQLVESGGGLVQAGGSLRLSCAASGFTFQYYAMGWYRQAPGKERELVATITTSGGNTYYADSVKGRFTISRDNAKNTVYLQMNSLKPEDTAVYYCAARNARYVHTMEYWGQGTQVTVSS | high polyreactivity
19 | QVQLVESGGGLVQAGGSLRLSCAASGFTFQYYAMGWYRQAPGKERELVPSISWSGGSTYYADSVKGRFTISRDHAKNTVYFQMNSLKPEDTAVYYCADSVTYLFCSARFSAYGYWGQGTQVTVSS | high polyreactivity
20 | QVQLVESGGGLVQAGGSLRLSCAASGFTFQYYTKGWYRQAPGKERELVAAISARGGSTYYADSVKGRFTISRDNAKNTVYLQMNSLKPEDTAVYYCNTVGIGAWGYSYPDEDNYWGQGTQVTVSS | low polyreactivity
21 | QVQLVESGGGLVQAGGSLRLSCAASGFTFRANGMGWSRQAPGKERELVAVITSGGTTNYADSVKGRFTISRDNAKNTVYLQMNSLKPEDTAVYYCAVPYEPTSIPERRDYYRADDYWGQGTQVTVSS | low polyreactivity
22 | QVQLVESGGGLVQAGGSLRLSCAASGFTFRANGMGWYRQAPGKERELVATITSGGTTNYADSVKGRLTISRDNAKNTVYLQMNSLKPEDTAVYYCNAGSVSDRQMDYWGQGTQVTVSS | low polyreactivity

Row | Sequence | polyreactivity (PSR sort gate)
23 | QVQLVESGGGLVQAGGSLRLSCAASGFTFRAYAMGWSRQAPGKERELVAAISTGGGSTYYADSVKGRFTISRDNAKNTVYLQMNSLKPEDTAVYYCNALPQRRYYYWGQGTQVTVSS | high polyreactivity
24 | QVQLVESGGGLVQAGGSLRLSCAASGFTFRAYVMGWDRQAPGKERELVASISKRGGNTYYADSVKGRFTISRDNAKNTVYLQMNSLKPEDTAVYYCAVDFFGDRGDYDYWGQGTQVTVSS | high polyreactivity
25 | QVQLVESGGGLVQAGGSLRLSCAASGFTFRDYAMGWYRQAPGKERELVAAITRGGSTNYADSVKGRFTISRDNAKNTVYLQMNSLKPEDTAVYYCAATPSWRWHVFAEFNSWGQGTQVTVSS | high polyreactivity
26 | QVQLVESGGGLVQAGGSLRLSCAASGFTFRDYAMGWYRQAPGKERELVAAITRRGGNTYYADSVKGRFTISRDNAKNTVYLQMNSLKPEDTAVYYCAARALSGHYDYWGQGTQVTVSS | high polyreactivity
27 | QVQLVESGGGLVQAGGSLRLSCAASGFTFRDYAMGWYRQAPGQERELVATITWRVGSTFYADSVKGRFTISRDNAKNTVYLQMNTLKPEDTADDYCAARWSTSYGPFDYWGQGTQVTVSS | low polyreactivity
28 | QVQLVESGGGLVQAGGSLRLSCAASGFTFRDYVMGWYRQAPGKERELVAAISRSGASTYYADSVKGRFTISRDNAKNTVYLQMNSLKPEDTAVYYCAKTQAGYSPGTYYYWGQGTQVTVSS | high polyreactivity
29 | QVQLVESGGGLVQAGGSLRLSCAASGFTFREYAMGWYRQAPGKERELVAAIDWSGGSTYYADSVKGRFTISRDNAKNTVYLQMNRLKPEDTAVYYCNVDFYDWYVYLWYVDYDYCGQGTQVTVSS | high polyreactivity
30 | QVQLVESGGGLVQAGGSLRLSCAASGFTFRFNAMGWYRHAPGKERELVAGITSGGTTNYAYSVKGRFTISRDNAKNTVYLHMNSLKPEDTAVYYCNAAWYRWKQRYDYWGQGTLVTVSS | low polyreactivity
31 | QVQLVESGGGLVQAGGSLRLSCAASGFTFRFYAMGWYRQAPGKERELVATISSRGGRTYYADSVKGRFTISRDNAKNTVYLQMNSLKPEDTAVYYCAADQKSQYQGNYWGQGTQVTVSS | high polyreactivity
32 | QVQLVESGGGLVQAGGSLRLSCAASGFTFRGNAMGWYRQAPGKERELVAAISYIGGTTYYADSVKGRFTISRDNAKNTVYLQMNSLKPEDTAVYYCAADLYRSILKPDYDYWGQGTQVTVSS | high polyreactivity
33 | QVQLVESGGGLVQAGGSLRLSCAASGFTFRGNAMGWYRQAPGKERELVAAITSSGGRTYYADSVKGRFTISRDNAKNTVYLQMNSLKPVDTAVYYCAARYAYPSRYYYWGQGTQGTVSS | high polyreactivity
34 | QVQLVESGGGLVQAGGSLRLSCAASGFTFRGYAMGWYRPAPGTERELVAAITKRGGSTYYADSVKGRFTISRDNAKNTVYLQMNSLKPEDTAVYYCAKTRRFGRYNAYWYRTYGYDYWGQGSQVTVSS | high polyreactivity
35 | QVQLVESGGGLVQAGGSLRLSCAASGFTFRGYAMGWYRQAPGKERELVAAIRRGVGSTYYADSVKGRFTISRDNAKNTVYLQMTSLKPEDTAVYYCNKDNAVDRLPWFQVTYDYWGQGTQVTVSS | low polyreactivity
36 | QVQLVESGGGLVQAGGSLRLSCAASGFTFRGYAMGWYRQAPGKERELVAAISGSGGRTHYADSVKGRFTISRDNAKNTVYLQMNSLKPEDTAVYYCNAVPYSRPLGNNYWGQGTQVTVSS | high polyreactivity
37 | QVQLVESGGGLVQAGGSLRLSCAASGFTFRGYAMGWYRQAPGKERELVAAISRGGNTKYADSVKGRFTISRDNAKNTVYLQMNSLKPEDTAVYYCASYYFSSSHRYGYWGQGTQVTVSS | high polyreactivity
38 | QVQLVESGGGLVQAGGSLRLSCAASGFTFRINAMGWYRQAPGKERELVAAITWIGGSTYYADSVKGRFTISRDNAKNTVYLQMNSLKPEDTALYYCAADVYNRWWWRAYDYWGQGTQVTVSS | high polyreactivity
39 | QVQLVESGGGLVQAGGSLRLSCAASGFTFRKYAMGWYRQAPGKERELVAANTSGGGSTYYADSVKGRFTISRDNAKNTVYLQMNSLKPEDTAVYYCAAKRSGGQGQGYGYWGQGTQVTVSS | high polyreactivity
40 | QVQLVESGGGLVQAGGSLRLSCAASGFTFRKYTMGWYRQAPGKERELVAAITNSGTSTYYADSVKGRFTISRDNAKNTVYLQMNSLKPEDTAVYYCARDNEPDYYSYPYDYWGQGTQVTVSS | low polyreactivity
41 | QVQLVESGGGLVQAGGSLRLSCAASGFTFRLNAMGWYRQAPGPERELVAAITRSGGNTYYADSVKGRFTIPRDNAKNTVYLQMNSLKPEDTAVYYCAARYFYWFRPTEYYYWGQGTQLTVSS | high polyreactivity
42 | QVQLVESGGGLVQAGGSLRLSCAASGFTFRLYAMGWYRQAPGKERELVAAISWGGGSTYYADSVKGRFTISRDNAKNTLYLQMNSLKPEDTAVYYCAAYKYGYRYYYWGQGTLVTVSS | high polyreactivity
43 | QVQLVESGGGLVQAGGSLRLSCAASGFTFRLYTMGWYRQAPGKERELVAGISTSGGSTYYADSVKGRFTISRDNAKNTVYLQMNSLKPEDTAVYYCAAQAFTSYDYWGQGTQVTVSS | high polyreactivity
